Data reported in the supplement of paper PMC9170038.

What was measured:
Details in all cases: FMN input: 0 or 200 uM; Eterna round: R93 (includes R88 designs)
MS2 coat protein [1] = experiment: apparent KD of MS2 coat protein, switch ON state; designed switch direction (-1 OFF switch, 1 ON switch): 1; higher = weaker reporter binding
How it was run: (§1)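 Each design's apparent KD comes from the median of binding-curve fits to its normalised clusters. Those clusters carried RNA switches transcribed on-chip from Illumina sequencing clusters. SNAP-549-labelled MS2 coat protein was titrated onto them in twofold steps (0.7 or 1.5 nM to 3 µM; per step 0.8–1.5 h down to 10–20 min). Conditions were 100 mM Tris-HCl pH 7.5, 80 mM KCl, 4 mM MgCl2, without or with constant ligand.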

MS2 coat protein [2] = experiment: apparent KD of MS2 coat protein, switch OFF state (with FMN for OFF switches, without FMN for ON switches); designed switch direction (-1 OFF switch, 1 ON switch): 1; higher = weaker reporter binding
How it was run: as §1

MS2 coat protein [3] = experiment: apparent KD of MS2 coat protein, switch ON state; designed switch direction (-1 OFF switch, 1 ON switch): -1; higher = weaker reporter binding
How it was run: as §1

MS2 coat protein [4] = experiment: apparent KD of MS2 coat protein, switch OFF state (with FMN for OFF switches, without FMN for ON switches); designed switch direction (-1 OFF switch, 1 ON switch): -1; higher = weaker reporter binding
How it was run: as §1

Sequence | apparent KD of MS2 coat protein (MS2 coat protein [1]) [nM] | apparent KD of MS2 coat protein (MS2 coat protein [2]) [nM] | apparent KD of MS2 coat protein (MS2 coat protein [3]) [nM] | apparent KD of MS2 coat protein (MS2 coat protein [4]) [nM]
AGAAGACAUGAGGAUCACCCAUGUGGGAAUAUGGGAGGAUAUACAAAGACGAGAGUCAGAGUAGAAGGCCUAGGUA [salish99-ss1-109] | 32.5 | 99.5 | – | –
AGAAGACAUGAGGAUCACCCAUGUGGGAAUAUGGGAGGAUAUACAAAGACGAGAGUCAGAGUAGAAGGCCUAGGCA [salish99-ss1-111] | 47 | 129 | – | –
AACCGGGAGAAGCAGGAUAUUGCCUCUUCAACAUGAGGAUCACCCAUGUAAGUAAAUUGACGAUACAAGAAGGGCUGCUCCUUAC [Raatgees] | 30.5 | 74.3 | – | –
GGGAAGAACAGAGAGGAUAUCCAAAGGAAAACAUGAGGAUCACCCAUGUAAAAGGAAGGAAAUUGGGAGAAGGCUCAAAAGAGAA [salish99-ss2-023] | 32.5 | 36.4 | – | –
AAAAGACAUGAGGAUCACCCAUGUCAAAACGUGGGAGGAUAUGCAUGGAAAACAUGCUGUGCAGAAGGCCCGUGUC [SS1 - 21] | 27.5 | 46.4 | – | –
AUAACAACGUAUGAGGAUAUCCUUAAUAAAACAUGAGGAUCACCCAUGUGAAUAAAAUAACAAUUGGAGAAGGCAUACGUACAAU [SS 2 M 52] | 15.4 | 20.8 | – | –
AAUAGACAUGAGGAUCACCCAUGUAGAAUUAUGGGAGGAUAUACAAAGACGAGAGUCAGAGUAGAAGGCCUAGGAA [salish99-ss1-148] | 23.6 | 71.5 | – | –
AAGAAACAUGAGGAUCACCCAUGUCAAGAGAGACUAGGAUAUCUGAAUUAAUUAAAUUAAGGAGAAGGAGUGAAAA [71%, Same state of confusion2, 2] | 35.9 | 88.6 | – | –
AACAUACAUGAGGAUCACCCAUGUUCCGGCAGGUCAGGAUAUGUAUCGAAAGAGUUAUAAACAGAAGGGACAUAAA [JR_SS001_Sub010] | 32.4 | 56.9 | – | –
GGGAGGAAGAGAGAGGAUAUCCAAAGGAAAACAUGAGGAUCACCCAUGUAAAAGGUAGGAAAUUGGGAGAAGGCUCAAGAGAAGG [salish99-ss2-050] | 18.2 | 26.6 | – | –
UGAAAGGAGAGAGAGGAUAUCCAAAGGAAAACAUGAGGAUCACCCAUGUAGAAGGUAGGAAAUUGGGAGAAGGCUCAAGAAAGAG [salish99-ss2-139] | 50.7 | 35.4 | – | –
UACAGACAUGAGGAUCACCCAUGUAGAAUUAUGGGAGGAUAUACAAAGACGAGAGUCAGAGUAGAAGGCCUAGGAU [salish99-ss1-164] | 23.5 | 61.3 | – | –
AAAAAAAAAAGGCAGGAUAUCCAAAAAAAAACAUGAGGAUCACCCAUGUAAAAAAAAAAAAAAUGGGAGAAGGGCCAAAAAAAAAA [Mat - Mod of Eli] | 24.9 | 46.3 | – | –
GAAAAAAAAAGGCAGGAUAUCCAAAAAAAAACAUGAGGAUCACCCAUGUAAAAAAAAAAAAAAUGGGAGAAGGGCCAAAAAAAAA [Mat - Same State 2 - Mod - 151] | 25.5 | 35.2 | – | –
CGAAGACAUGAGGAUCACCCAUGUGGGAAUAUGGGAGGAUAUACAAAGACGAGAGUCAGAGUAGAAGGCCUAGGAU [salish99-ss1-105] | 29.5 | 78.7 | – | –
AGGAGACAUGAGGAUCACCCAUGUGAGAAGAGGCGAGGAUAUCGAAAAAAAGAAAGAAAACGAGAAGGCGCGAGAA [salish99-SS1-015] | 37.6 | 64.5 | – | –
AAUAUAUUAUUUAAGGAUAUCAUAGGAAACACAUGAGGAUCACCCAUGUGGGAAACCUGGUCGGGUGAGAAGGUGGAUAAUAUAU [Samwise Clockwise 35 - Jieux - Same State 2] | 13.8 | 35.2 | – | –
AAUAUACAUGAGGAUCACCCAUGUUAGGUGGGACUAGGAUAUCAAAAUACAUAAUGAACAUGAGAAGGAGUAUCAA [JR_SS001_Sub403] | 140 | 249 | – | –
GGGAGGAAGAGAGAGGAUAUCCAAAGGAAAACAUGAGGAUCACCCAUGUAAAAGGUAGGAAAUUGGGAGAAGGCUCAAAAGAGGC [salish99-ss2-042] | 19.4 | 46.6 | – | –
AAUGAACAUGAGGAUCACCCAUGUUCUAACAGUUGAGGAUAUGUGGGUGAAAAUAGCACGGCAGAAGGCGAGUGUA [SameState1 Malc#20] | 119 | 54.6 | – | –
UAACAACAUGAGGAUCACCCAUGUCAAAUAAAUCGAGGAUAUGGGACGCAAGACGUCUUACCAGAAGGCGAAACAA [Leoratin] | 25.1 | 70.9 | – | –

Sequence | apparent KD of MS2 coat protein (MS2 coat protein [1]) [nM] | apparent KD of MS2 coat protein (MS2 coat protein [2]) [nM] | apparent KD of MS2 coat protein (MS2 coat protein [3]) [nM] | apparent KD of MS2 coat protein (MS2 coat protein [4]) [nM]
AUAAUAAUAAGGUAGGAUAUGCUAAAGUAAACAUGAGGAUCACCCAUGUAAAGAAAAAAACUCAUGUAGAAGGGCCAGAAAUAAA [moonwalk 4] | 80.1 | 71.5 | – | –
GAAAAACAUGAGGAUCACCCAUGUGAAAACUUGGGAGGAUAUACUAAGACGAAAGUCGAAGUAGAAGGCCUAAAAG [Same State 1.4j (Mat - Mod of Eli - )] | 19 | 89.1 | – | –
AAAAAACAUGAGGAUCACCCAUGUCAAAAGACGUGAGGAUAUGUACAGACUUCGGUCUGUACAGAAGGCACGAAAA [SS1 - 1037] | 12.9 | 20.1 | – | –
AAAAGGCUAAACUAGGAUAUGGGUGUCUAAACAUGAGGAUCACCCAUGUGAUGGCAAAACAAAGCUCAGAAGGAGUGGUAGCCCA [Riquceri] | 12.4 | 56.7 | – | –
AAAAAACAUGAGGAUCACCCAUGUAAAUCUCAUGUAGGAUAUACAAAAAAAAAAAAAAAAGUAGAAGGACAAAAAA [Omei A variation 5] | 125 | 75.2 | – | –
AUAAAACAUGAGGAUCACCCAUGUAGACACGUGGGAGGAUAUACUAGAUCGAAAGAUCUAGUAGAAGGCCUUCGUA [Mat - Same State 1 - JL mod - D94] | 23.7 | 38.4 | – | –
UAAUAAUAAACCAAGGAUAUGGAGUUUCCAACAUGAGGAUCACCCAUGUUUAGCAUGAAAUCGAUCCAGAAGGUGGAGCCAAAUA [JR_SS002_Sub1005] | 54.1 | 102 | – | –
GAAAAACAUGAGGAUCACCCAUGUAAAAAUAUGGGAGGAUAUAGAAAGACGAAAGUCAAACUAGAAGGCCUAAAAG [Garnet 1] | 28.1 | 63 | – | –
GAAAAACAUGAGGAUCACCCAUGUAGAAAUAUGGAAGGAUAUACAAAGACGAAAGUCAAAGUAGAAGGUCUAAAAG [Mat - Same State 1 - Eli mod - D13] | 15.5 | 19.8 | – | –
GAGGACAUAGUACAGGAUAUAUGAAUAGUUACAUGAGGAUCACCCAUGUGCAUUUAUAUGCGCACAUAGAAGGGUGGUAGUUAUC [SameState2 Malc#29] | 38.8 | 33.5 | – | –
AAAAAACAUGAGGAUCACCCAUGUCAGGAUAUUUCUAAAAAAAAAAAAAAAAAAAAUGAAAGAAGGGACAAAAA [excalibur 6] | – | – | 58 | 52.5
ACAUGUACAGGAUAUACGUGGAAAAAAAAAAAAAAAAAACUACAUGAGGAUCACCCAUGUAGAAGGGUACAUGA [Ex2 Design 194: Random 12C] | – | – | 26.5 | 37
GGAAAACAUGAGGAUCACCCAUGUAAGGAUAUGCAAAAAAAAAAAGGAUAUAGAAGGAGCAGAAGGUACAAAGG [salish99-ex1-29] | – | – | 36.2 | 57
AGCACGUCAGGAUAUACGAAAAAAAAGGGUAAAAAAAACACACAUGAGGAUCACCCAUGUAGAAGGGACAAGCA [Diamond 94] | – | – | 66.8 | 86.8
AGAAAGUCAGGAUAUCAGAAUAAGUCGAAAACGACUAGUAAUGAGAAGGGACAUGAGGAUCACCCAUGUAAGAA [Ex4 sub 3] | – | – | 49 | 37.1
AAAGGUACAGGAUAUGCGUGGAAAAAGUGUAUUCACCAACGACAUGAGGAUCACCCAUGUAGAAGGGUACCAAA [Mod of wbt1 from round 1] | – | – | 25.9 | 31.8
GGAAAGUGAGGAUAUGCAUAACAAACACAAACACAAACAAAGCAGAAGGCACAUGAGGAUCACCCAUGUAAACA [Exclusion 4 Willow] | – | – | 23.5 | 22.3
GGUUGGCGAGGAUAUACAUGAGGAUCACCCAUGUGAGAGAAAAUAGUGAGAAAGAAAAGUAGAAGGCGCUGACG [salish99-ex3-42] | – | – | 113 | 235
AACAGGACAGGAUAUACAUGAGGAUCACCCAUGUAGGAAUUAAGCAGAGUACCAAACAGUAGAAGGGUCAUGGA [Ruby 27] | – | – | 33.3 | 44.7
GUAGUGUGAGGAUAUGGAUAGAAGAAGUGAAAGUAAGAGAACUAGAAGGCACAUGAGGAUCACCCAUGUAUGUG [JR_Exc004_Sub1701] | – | – | 41.4 | 53.3
AAAAUGUCAGGAUAUGUACGAAAAAAUAAAAAAAUAAAAGUACAGAAGGGACAUGAGGAUCACCCAUGUCAGGG [EX4 392: Minimal 4] | – | – | 97.9 | 74.6
